The values that follow come from patent US20240336665A1 (ACROIMMUNE GUANGZHOU BIOTECH, published 2024).

Sequences and labels used below:
B1: CD24Fc fusion protein (Fc fusion, UniProt P25063 27-56, looked up)
chain: SETTTGTSSNSSQSTSNSGLAPNPTNATTK
notes: Comparator protein; also called CD24Fc protein; not shown: Fc detected by anti-human IgG-Fc antibody
B2: HMGB1-His tag protein (AcroBiosystems, HM1-H5220, HEK293 cell derived) (other, human, UniProt P09429 1-215, looked up)
chain: MGKGDPKKPRGKMSSYAFFVQTCREEHKKKHPDASVNFSEFSKKCSERWKTMSAKEKGKFEDMAKADKARYEREMKTYIPPKGETKKKFKDPNAPKRPPSAFFLFCSEYRPKIKGEHPGLSIGDVAKKLGEMWNNTAADDKQPYEKKAAKLKEKYEKDIAAYRAKGKPDAAKKGVVKAEKSKKKKEEEEDEEDEEDEEEEEDEEDEDEEEDDDDE
notes: Bought reagent; also called recombinant human HMGB1-His tag protein; High Mobility Group Box 1; not shown: His tag

Experiment [1] has as its target B2. In words: ELISA, HMGB1-His coated, detection by anti-human IgG-Fc-HRP. The method, then:
In-brief, 96-well plates were coated (100 μL per well) with 0.1 μg/mL HMGB1-His tag protein (AcroBiosystems, HM1-H5220, HEK293 cell derived) at 4° C. overnight. After blocking with SuperBlock (Thermo, 37515) at room temperature for 1 hour, 100 μL of 2-fold serial dilutions of AI-72 or CD24Fc (all starting at 1.5 mg/ml, and diluted in PBST-1% BSA solution containing 1 mM MgCl2 and 1 mM CaCl2) were added. The bound AI-072 or CD24Fc protein was then detected by adding HRP-labeled goat anti-human IgG-Fc antibody (1:1000, Invitrogen, A18829), followed by the addition of tetramethylbenzidin (TMB) substrate. After a color development at room temp for 15 mins, 2N HCl stop solution was then added into the plate. The OD values at a wavelength of 450 nm in each well were then measured.

Experiment [2] addresses T1, Siglec10-mIgG2aFc fusion protein (AcroBiosystems, SI0-H525b, HEK293 cell derived) (human, UniProt Q96LC7 17-546).
T1 construct: Bought reagent; also called recombinant human Siglec-10-mIgGFc protein; not shown: mouse IgG2a Fc
T1 sequence (looked up): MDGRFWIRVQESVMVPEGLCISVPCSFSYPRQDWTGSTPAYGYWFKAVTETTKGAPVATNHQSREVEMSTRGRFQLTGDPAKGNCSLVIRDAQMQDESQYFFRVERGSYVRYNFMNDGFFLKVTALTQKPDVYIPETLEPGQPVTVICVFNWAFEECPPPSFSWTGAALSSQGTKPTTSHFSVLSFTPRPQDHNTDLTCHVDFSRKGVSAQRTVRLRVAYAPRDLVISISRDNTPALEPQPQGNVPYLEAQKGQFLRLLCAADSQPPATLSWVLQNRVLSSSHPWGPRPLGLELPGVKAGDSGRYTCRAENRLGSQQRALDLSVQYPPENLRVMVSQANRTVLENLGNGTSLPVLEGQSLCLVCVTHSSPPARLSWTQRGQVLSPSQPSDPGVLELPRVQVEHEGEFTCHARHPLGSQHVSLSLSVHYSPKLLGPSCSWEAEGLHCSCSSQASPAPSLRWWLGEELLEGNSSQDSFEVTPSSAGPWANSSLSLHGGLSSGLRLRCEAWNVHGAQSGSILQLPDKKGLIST
In words: ELISA, Siglec10-mIgG2aFc coated, detection by anti-human IgG-Fc-HRP. The method, then:
In-brief, 96-well plates were coated (100 μL per well) with 0.2 μg/mL of Siglec10-mIgG2aFc fusion protein (AcroBiosystems, SI0-H525b, HEK293 cell derived) at 4° C. overnight. After blocking with SuperBlock (Thermo, 37515) at room temperature for 1 hour, 100 μL of 2-fold serial dilutions of either AI-072 or CD24Fc (all starting at 1.5 mg/ml) were added. The bound AI-072 or CD24Fc protein was then detected by HRP-labeled goat anti-human IgG-Fc antibody (1:5000, Invitrogen, A18829) followed by the addition of Tetramethylbenzidin (TMB) substrate. After a color development at room temp for 15 min, 2N HCl stop solution was added into the plate. The OD values at a wavelength of 450 nm (OD 450 nm) in each well were then measured.
A general note: ELISA stands for enzyme-linked immunosorbent assay.

The target of experiment [3] is T2, human IgG1-Fc control protein (human, UniProt P01857-1 100-330 = IgG part, limits assumed).
T2 construct: domain: Fc; Control in the pull-down assay; also called human IgG-Fc control
Kind of experiment: protein A bead pull-down, SDS-PAGE with Coomassie staining. The method, then: FIGS. 8A-8B illustrate the association of AI-072 protein with human HMGB1 in a pull-down assay. Recombinant HMGB1-His protein sample was incubated with AI-072, human IgG-Fc control, or none for 5 min, then add protein A-conjugated beads to the mixture to capture (or pull-down) the bound proteins. The captured proteins were then separated in an SDS-PAGE gel and visualized by Coomassie Brilliant Blue dye staining. […] As indicated on the top of each gel, lane 1 represents the sample containing HMGB1 only, lane 2 represents the sample containing HMGB1 and human IgG-Fc, and lane 3 represents the sample containing HMGB1 and AI-072, lane M is the protein molecule weight marker sample.
In-brief, 8 μL of 500 μg/mL HMGB1-His protein was mixed with either about 3 μg AI-072 or human IgG1-Fc control protein or none, and set at room temp for 5 min. The mixtures were then incubated with protein A-conjugated beads to capture (or pull-down) the bound proteins. The captured proteins were separated in an SDS-PAGE gel and visualized by Coomassie Brilliant Blue dye staining.

For orientation: EC50 means the concentration that produces a half-maximal response. For B1, the values for the EC50 in experiment [1] and in experiment [2] were 51 µM and 2.85 µM, respectively.
B2: the binding result in experiment [3] is given as “no binding (tested: about 3 ug)”.
